Reference: patent publication US20220324953A1 (JIANGSU HENGRUI MEDICINE, published 2022)
Positions count from the first letter of the chain named. One block for each binder: values may come before it.

How the values were obtained:
[1] = target: T1, Cynomolgus CTGF-Fc (fusion protein of cynomolgus CTGF coding region with Fc) (cynomolgus); assay: ELISA, cyno-CTGF-Fc captured by anti-mFc
T1 construct: also called cyno-CTGF-mFc protein; cyno-CTGF protein with Fc tag
Method: The binding activity of anti-monkey CTGF antibody to monkey CTGF protein was tested by ELISA assay. A 96-well microtiter plate was directly coated with anti-mFc protein, and then the cyno-CTGF protein with Fc tag was bound to the plate, and then the antibody was added. The signal strength upon the addition of the antibody was used to determine the binding activity of the antibody to cyno-CTGF. The specific experimental procedures were as follows:
The anti-mFc Protein (Sigma, Cat No. M4280) was diluted with PBS, pH 7.4 (Shanghai Yuanpei, Cat No. B320) buffer to a concentration of 2 μg/ml, which was added into the 96-well microtiter plate (Corning, Cat No. CLS3590-100EA) at 50 μl/well, and incubated in an incubator at 37° C. for 2 hours. The liquid was removed, 250 μl/well blocking solution (5% skim milk (BD skim milk, Cat No.232100) diluted in PBS) was added, and incubated in an incubator at 37° C. for 3 hours or at 4° C. overnight (16-18 hours) for blocking. After the blocking was finished, the blocking solution was removed, the plate was washed for 3 times with PBST buffer (PBS containing 0.1% Tween-20, pH 7.4), 50 μl of 1 μg/ml cyno-CTGF-mFc protein was added into each well, incubated in an incubator at 37° C. for 1 hour, and then the plate was washed for 3 times with PBST buffer (PBS containing 0.1% Tween-20, pH 7.4). 50 μl/well of various concentrations of each of the test antibodies (antibodies purified from hybridoma or humanized antibodies) diluted with sample dilution solution were added, and incubated in an incubator at 37° C. for 1 hours. After the incubation was finished, the plate was washed for 3 times with PBST, 50 μl/well of HRP-labeled goat anti-mouse secondary antibody (Jackson Immuno Research, Cat No. 115-035-003) or goat anti-human secondary antibody (Jackson Immuno Research, Cat No. 109-035-003) diluted with sample dilution solution was added, and incubated at 37° C. for 1 hour. The plate was washed for 5 times with PBST, 50 μl/well of TMB chromogenic substrate (KPL, Cat No. 52-00-03) was added, incubated at room temperature for 5-10 min, and 50 μl/well of 1 M H₂SO₄ was added to stop the reaction. The absorbance value was read by a microplate reader (Molecular Devices, VERSA max) at a wavelength of 450 nm, and the data was analyzed with GraphPad Prism 5. The binding of CTGF antibody to cyno CTGF protein was calculated as EC50 value.

[2] = target: T2, human CTGF (antigen of the Biacore assays) (human, UniProt P29279 27-349); assay: Biacore, antibody captured on Protein A, CTGF in flow, 1:1 fit
T2 construct: also called antigen human CTGF; human CTGF protein
T2 sequence (looked up): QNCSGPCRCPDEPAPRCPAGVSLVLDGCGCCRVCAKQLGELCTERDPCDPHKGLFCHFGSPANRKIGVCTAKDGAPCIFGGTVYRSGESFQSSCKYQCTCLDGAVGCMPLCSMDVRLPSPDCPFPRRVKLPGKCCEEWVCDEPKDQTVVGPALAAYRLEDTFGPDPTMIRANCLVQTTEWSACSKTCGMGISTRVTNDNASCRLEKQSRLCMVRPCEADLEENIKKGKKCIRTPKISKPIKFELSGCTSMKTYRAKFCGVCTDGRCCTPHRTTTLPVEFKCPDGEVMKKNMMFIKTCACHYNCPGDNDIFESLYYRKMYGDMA
From the text: A certain amount of each of the test antibodies was affinity-captured with Protein A biosensor chip (Cat. # 29127556, GE), and then a certain concentration of human or mouse CTGF was allowed to flow through the surface of the chip. The reaction signals were detected in real time with Biacore instrument to generate a binding and dissociation curve. After the dissociation was completed in each cycle, the biosensor chip was washed and regenerated with Glycine-HCl regeneration solution pH 1.5 (Cat. # BR-1003-54, GE). The running buffer for the assay was 1×HBS-EP buffer solution (Cat. # BR-1001-88, GE).

T1 sequence (chain, as listed by the source limits assumed): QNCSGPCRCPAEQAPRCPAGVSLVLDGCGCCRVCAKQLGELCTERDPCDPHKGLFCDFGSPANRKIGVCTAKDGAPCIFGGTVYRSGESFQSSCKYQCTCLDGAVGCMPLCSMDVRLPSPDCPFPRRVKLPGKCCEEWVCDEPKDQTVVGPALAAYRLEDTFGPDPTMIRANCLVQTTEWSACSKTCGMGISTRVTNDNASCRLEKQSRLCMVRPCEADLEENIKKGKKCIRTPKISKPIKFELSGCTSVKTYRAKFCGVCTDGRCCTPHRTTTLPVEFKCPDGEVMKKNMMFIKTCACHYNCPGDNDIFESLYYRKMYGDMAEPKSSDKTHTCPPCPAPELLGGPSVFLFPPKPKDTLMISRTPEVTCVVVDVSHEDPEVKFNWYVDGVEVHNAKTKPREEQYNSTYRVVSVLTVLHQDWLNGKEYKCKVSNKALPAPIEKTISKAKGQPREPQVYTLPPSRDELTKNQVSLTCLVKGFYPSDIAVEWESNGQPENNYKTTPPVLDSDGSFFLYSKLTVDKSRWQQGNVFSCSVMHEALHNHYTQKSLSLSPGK

- EC50 [1]: 28 pM
- Kd [2]: 37.9 pM
- koff [2]: 0.00196 s⁻¹
- kon [2]: 5.17e+07 M⁻¹ s⁻¹
B1: Hu164-67wl (antibody, human IgG1, lambda)
heavy: not shown
light: ETVVTQEPSLTVSPGGTVTLTCRSSIGAVTTSNYANWVQQKPGQAFRGLIGGTSNRAPWTPARFSGSLLGGKAALTLSGVQPEDEAEYYCALWYSTHYVFGGGTKLTVLGQPKANPTVTLFPPSSEELQANKATLVCLISDFYPGAVTVAWKADGSPVKAGVETTKPSKQSNNKYAASSYLSLTPEQWKSHRSYSCQVTHEGSTVEKTVAPTEC

- EC50 [1]: 29 pM
- Kd [2]: 69.1 pM
- koff [2]: 0.00294 s⁻¹
- kon [2]: 4.26e+07 M⁻¹ s⁻¹
B2: Hu164-57wl (antibody, human IgG1, lambda, V domains shown)
VH: EVTLKESGPVLVKPTETLTLTCTVSGFSLSTFGVHWIRQPPGKALEWLAVIWRRGGTDYNAAFMSRLTISKDTSKSQVVLTMTNMDPVDTATYYCARDGGFDYWGQGTTVTVSS
VL: ETVVTQEPSLTVSPGGTVTLTCRSSIGAVTTSNYANWVQQKPGQAFRGLIGGTSNRAPWTPARFSGSLLGGKAALTLSGVQPEDEAEYYCALWYSTHYVFGGGTKLTVLG

- EC50 [1]: 38 pM
- Kd [2]: 343 pM
- koff [2]: 0.0176 s⁻¹
- kon [2]: 5.15e+07 M⁻¹ s⁻¹
B3: Hu164-77wl (antibody, human IgG1, lambda, V domains shown)
VH: EVQLQESGPGLVKPSQTLSLTCTVSGFSISTFGVHWIRQHPGKGLEWIGVIWRRGGTDYNAAFMSRVTISKDTSKNQVSLKLSSVTAADTAVYYCARDGGFDYWGQGTTVTVSS
VL: B2 VL

- EC50 [1]: 34 pM
- Kd [2]: 194 pM
- koff [2]: 0.0204 s⁻¹
- kon [2]: 1.05e+08 M⁻¹ s⁻¹
B4: Hu164-87wl (antibody, human IgG1, lambda, V domains shown)
VH: B3 VH with I48L, V67L, L80F
VL: B2 VL

- EC50 [1]: 86 pM
B5: positive control CTGF antibody mAb1 (antibody, V domains shown)
VH: EGQLVQSGGGLVHPGGSLRLSCAGSGFTFSSYGMHWVRQAPGKGLEWVSGIGTGGGTYSTDSVKGRFTISRDNAKNSLYLQMNSLRAEDMAVYYCARGDYYGSGSFFDCWGQGTLVTVSS
VL: DIQMTQSPSSLSASVGDRVTITCRASQGISSWLAWYQQKPEKAPKSLIYAASSLQSGVPSRFSGSGSGTDFTLTISSLQPEDFATYYCQQYNSYPPTFGQGTKLEIKR
notes: Positive control, from CN1829740B; also called pamrevlumab; FG-3019

- EC50 [1]: 36 pM
- Kd [2]: 302 pM
- koff [2]: 0.0116 s⁻¹
- kon [2]: 3.84e+07 M⁻¹ s⁻¹
B6: Hu164-68wl (antibody, human IgG1, lambda, V domains shown)
VH: B2 VH with A44G, A49G, L80F
VL: ETVVTQEPSFSVSPGGTVTLTCRSSIGAVTTSNYANWVQQTPGQAFRGLIGGTSNRAPGVPDRFSGSILGNKAALTITGAQADDESDYYCALWYSTHYVFGGGTKLTVLG

- EC50 [1]: 32 pM
- Kd [2]: 322 pM
- koff [2]: 0.028 s⁻¹
- kon [2]: 8.71e+07 M⁻¹ s⁻¹
B7: Hu164-69wl (antibody, human IgG1, lambda, V domains shown)
VH: B2 VH with A44G, A49G, L80F
VL: ESVVTQPPSVSGAPGQRVTISCRSSIGAVTTSNYANWVQQLPGTAFKGLIGGTSNRAPGVPDRFSGSKSGTSASLAITGLQAEDEADYYCALWYSTHYVFGGGTKLTVLG

- EC50 [1]: 73 pM
- Kd [2]: 1010 pM
- koff [2]: 0.0142 s⁻¹
- kon [2]: 1.4e+07 M⁻¹ s⁻¹
B8: Hu147-22wk (antibody, human IgG1, kappa, V domains shown)
VH: EVQLVESGGGLVQPGGSLRLSCAASGFTFNTYAMNWVRQAPGKGLEWVARIRTKSNNYATYYADSVKDRFTISRDDSKNSLYLQMNSLKTEDTAVYYCVETGFAYWDQGTLVTVSS
VL: EIVLTQSPATLSLSPGERATLSCSASSSVSYMHWFQQKPGQSPKLLIYSTSNLASGIPARFSGSGSGTDYTLTISSLEPEDFAVYYCQQRSSYPLTFGQGTKLEIKR

- EC50 [1]: 62 pM
- Kd [2]: 969 pM
- koff [2]: 0.033 s⁻¹
- kon [2]: 3.41e+07 M⁻¹ s⁻¹
B9: Hu147-12wk (antibody, human IgG1, kappa, V domains shown)
VH: B8 VH with N30S, A49G
VL: B8 VL

- EC50 [1]: 77 pM
- Kd [2]: 1130 pM
- koff [2]: 0.0554 s⁻¹
- kon [2]: 4.89e+07 M⁻¹ s⁻¹
B10: Hu147-14wk (antibody, human IgG1, kappa, V domains shown)
VH: B8 VH with N30S, A49G
VL: DIQMTQSPSSLSASVGDRVTITCSASSSVSYMHWFQQKPGKSPKLLIYSTSNLASGVPSRFSGSGSGTDYTLTISSLQPEDFATYYCQQRSSYPLTFGQGTKLEIKR

- EC50 [1]: 53 pM
- Kd [2]: 974 pM
- koff [2]: 0.0162 s⁻¹
- kon [2]: 1.66e+07 M⁻¹ s⁻¹
B11: Hu147-21wk (antibody, human IgG1, kappa, V domains shown)
VH: B8 VH
VL: B8 VL with K44R

- EC50 [1]: 63 pM
- Kd [2]: 818 pM
- koff [2]: 0.0112 s⁻¹
- kon [2]: 1.37e+07 M⁻¹ s⁻¹
B12: Hu147-23wk (antibody, human IgG1, kappa, V domains shown)
VH: B8 VH
VL: B8 VL with L46W, I57V

- EC50 [1]: 43 pM
- Kd [2]: 808 pM
- koff [2]: 0.024 s⁻¹
- kon [2]: 2.97e+07 M⁻¹ s⁻¹
B13: Hu147-13wk (antibody, human IgG1, kappa, V domains shown)
VH: B8 VH with N30S, A49G
VL: B8 VL with L46W, I57V

- EC50 [1]: 79 pM
- Kd [2]: 910 pM
- koff [2]: 0.0133 s⁻¹
- kon [2]: 1.46e+07 M⁻¹ s⁻¹
B14: Hu147-32wk (antibody, human IgG1, kappa, V domains shown)
VH: B8 VH with T28S, K78E, N79S
VL: B8 VL

- EC50 [1]: 144 pM
- Kd [2]: 1050 pM
- koff [2]: 0.0155 s⁻¹
- kon [2]: 1.47e+07 M⁻¹ s⁻¹
B15: Hu147-34wk (antibody, human IgG1, kappa, V domains shown)
VH: B8 VH with T28S, K78E, N79S
VL: B10 VL

- EC50 [1]: 52 pM
- Kd [2]: 1130 pM
- koff [2]: 0.0336 s⁻¹
- kon [2]: 2.98e+07 M⁻¹ s⁻¹
B16: Hu147-11wk (antibody, human IgG1, kappa, V domains shown)
VH: B8 VH with N30S, A49G
VL: B8 VL with K44R

- EC50 [1]: 80 pM
B17: Hu147-24wk (antibody, human IgG1, kappa, V domains shown)
VH: B8 VH
VL: B10 VL

- EC50 [1]: 70 pM
- Kd [2]: 894 pM
- koff [2]: 0.0159 s⁻¹
- kon [2]: 1.78e+07 M⁻¹ s⁻¹
B18: Hu147-31wk (antibody, human IgG1, kappa, V domains shown)
VH: B8 VH with T28S, K78E, N79S
VL: B8 VL with K44R

- EC50 [1]: 44 pM
- Kd [2]: 713 pM
- koff [2]: 0.0104 s⁻¹
- kon [2]: 1.45e+07 M⁻¹ s⁻¹
B19: Hu147-33wk (antibody, human IgG1, kappa, V domains shown)
VH: B8 VH with T28S, K78E, N79S
VL: B8 VL with L46W, I57V

- EC50 [1]: 53 pM
B20: Hu147-15wk (antibody, human IgG1, kappa, V domains shown)
VH: B8 VH with N30S, A49G
VL: B10 VL with M4L, L46W
